Data: US12454527B2, “Conjugate monomethyl auristatin E to obtain a composition for treatment of prostate cancer” (priority 2019, dated 2025)
“And” between values parts separate entries of the source, which are not always exact repeats. Equal values may be shown once. “Also recorded” adds a separate entry of the source. Starred links: 1 amine or outer side, 2 acyl side, 3 side chain; linkers in the order of their positions; H or OH if unused. Non-standard residues stand in square brackets, D forms with d. Residues, ends and D or L forms follow the SMILES beside them. ξ: configuration not given here. *: point of attachment. GluureaLys(ε-3-ClBenzyl) = O=C(O)CC[C@H](NC(=O)N[C@@H](CCCCN(Cc1cccc(Cl)c1)*)C(=O)O)C(=O)O; Dolaproine = CO[C@@H]([C@@H]1CCCN1)[C@@H](C)C(=O)O; Dil = CC[C@H](C)[C@H](NC)[C@@H](CC(=O)O)OC; X1 = O=C(CCCc1cn(CCCN[*:1])nn1)[*:2]; PABC = O=C(OCc1ccc(N[*:1])cc1)[*:2]; X2 = C[C@@H](N*)[C@@H](O)c1ccccc1; Cit = NC(=O)NCCC[C@H](N)C(=O)O; Suc = O=C(CCC(=O)[*:2])[*:1]; NMeV = CN[C@H](C(=O)O)C(C)C; ξV = CC(C)C(N)C(=O)O; Ahx = NCCCCCC(=O)O

Columns and labels:
[1] = Pharmacokinetics in plasma of rabbits after a single injection; format: in vivo; as to T1/2: dose 0.81 mg/kg; as to Vd: dose 0.81 mg/kg
Description: The pharmacokinetics study for the Conjugate (I) product in plasma of rabbits and rats after a single injection.
The leporids and rodents are the standard targets for preclinical studies of potential drug products as well as determining the pharmacokinetic parameters. The rabbits and rats are recommended as test systems to study pharmacokinetic properties of pharmaceutical products by the regulatory documents (FIG. 7, FIG. 8).
[…] The pharmacokinetic data, determined from this number of test animals, are sufficient to obtain the primary quantitative characteristics of test product distribution and elimination and the calculation of descriptive statistics parameters.
• 1. Conjugate (1) • 2. Solubilizer Pluronic F127—in the amount, five-fold greater than the conjugate amount by weight. • 3, Diluent—Haemodes infusion solution. • Dimethyl sulfoxide—in the amount of 5% of the prepared volume. • Rabbit experiment (see Tables 5, 6), • Rat experiment (see Tables 7, 8).

[2] = Acute toxicity study, single intravenous administration, mice; format: in vivo
Description: Acute toxicity study of Conjugate (I) product on mice and rats.
• 1. Conjugate (I). • 2. Solubilizer Pluronic F127—in the amount, five-fold greater than the conjugate amount by weight. • 3. Diluent Haemodes infusion solution. • 4. Dimethyl sulfoxide—in the amount of 5% of the prepared volume.
The experiment took white outbred male mice aged about 2 months with body weight of 19-21,g, and also white outbred mature male rats aged about 2 months with body weight 190-210 g.
Acute toxicity study was performed within the intravenous administration. Before the start of the experiment to determine an acute toxicity, the animals were deprived of food and water (mice were deprived for 2 hours, rats—for 10-12 hours), and then weighed. Then each animal received the intravenous drug injection according to the study design, in a volume not exceeding the acceptable single injection volume: 0.5 mL for mice, 2 mL for rats, and fractionally if necessary. The control group of animals received Pluronic solution in Haemodes in the proportion used fort dose preparation of 78 mg/kg for mice and 38 mg/kg for rats. The duration of observation for laboratory animals was 14 days. During this period, visible signs of intoxication were assessed (see Table 9).

`CC[C@H](C)[C@@H]([C@@H](CC(=O)N1CCC[C@H]1[C@H](OC)[C@@H](C)C(=O)N[C@H](C)[C@@H](O)c1ccccc1)OC)N(C)C(=O)[C@@H](NC(=O)[C@H](C(C)C)N(C)C(=O)OCc1ccc(NC(=O)[C@H](CCCNC(N)=O)NC(=O)C(NC(=O)CCCc2cn(CCCNC(=O)[C@H](Cc3ccc(O)cc3)NC(=O)[C@H](Cc3ccccc3)NC(=O)CCC(=O)NCCCCCC(=O)N(CCCC[C@H](NC(=O)N[C@@H](CCC(=O)O)C(=O)O)C(=O)O)Cc3cccc(Cl)c3)nn2)C(C)C)cc1)C(C)C` (stereo partly shown) [Conjugate (I)] ({GluureaLys(ε-3-ClBenzyl)-Ahx-Suc}-FY[X1][ξV][Cit][PABC][NMeV]V[Dil][Dolaproine]-X2) gave a clearance ([1]; male, Soviet Chinchilla, rabbit, plasma, rabbits N=6, read-out: CI, Median (converted)) of 0.374 mL/min/kg, a level at 0.08 h ([1]; male, Soviet Chinchilla, rabbit, plasma, rabbits, 0.08 hour, read-out: Concentration in blood plasma (individual animals)) of 9580 ng/mL and a level at 0.25 h ([1]; male, Soviet Chinchilla, rabbit, plasma, rabbits, 0.25 hour, read-out: Concentration in blood plasma (individual animals)) of 10700 ng/mL. For the same compound, the level at 0.5 h ([1]; male, Soviet Chinchilla, rabbit, plasma, rabbits, 0.50 hour, read-out: Concentration in blood plasma (individual animals)) was 7250 ng/mL, the level at 1 h ([1]; male, Soviet Chinchilla, rabbit, plasma, rabbits, 1.00 hour, read-out: Concentration in blood plasma (individual animals)) was 5100 ng/mL and the level at 1.5 h ([1]; male, Soviet Chinchilla, rabbit, plasma, rabbits, 1.50 hour, read-out: Concentration in blood plasma (individual animals)) was 4850 ng/mL. It also gave a level at 2 h ([1]; male, Soviet Chinchilla, rabbit, plasma, rabbits, 2.00 hour, read-out: Concentration in blood plasma (individual animals)) of 3840 ng/mL, a level at 6 h ([1]; male, Soviet Chinchilla, rabbit, plasma, rabbits, 6.00 hour, read-out: Concentration in blood plasma (individual animals)) of 1310 ng/mL and a level at 8 h ([1]; male, Soviet Chinchilla, rabbit, plasma, rabbits, 8.00 hour, read-out: Concentration in blood plasma (individual animals)) of 1360 ng/mL. For the same compound, the level at 10 h ([1]; male, Soviet Chinchilla, rabbit, plasma, rabbits, 10.00 hour, read-out: Concentration in blood plasma (individual animals)) was 859 ng/mL, the “AUCt-∞/AUC0-∞, Geometr. mean” value ([1]; rabbits N=6) was 11.364% and the “AUCt-∞/AUC0-∞, Mean value” ([1]; rabbits N=6) was 12.690%. The “AUCt-∞/AUC0-∞, Median” value ([1]; rabbits N=6) was 13.29%, the “C0, Median” value ([1]; rabbits N=6) was 9880 ng/mL and the “Kel, Geometr. mean” value ([1]; rabbits N=6) was 0.160 h⁻¹. For the same compound, the “Kel, Mean value” ([1]; rabbits N=6) was 0.170 h⁻¹, the “Kel, Median” value ([1]; rabbits N=6) was 0.153 h⁻¹ and the “Concentration in blood plasma, Geometr. mean” value ([1]; rabbits N=6, 1.50 hour) was 5046 ng/mL. For the same compound, the “Concentration in blood plasma, Median” value ([1]; rabbits N=6, 8.00 hour) was 1195 ng/mL, the “Concentration in blood plasma (individual animals)” value ([1]; rabbits, 0.08 hour) was 9617 ng/mL and the “Concentration in blood plasma (individual animals)” value ([1]; rabbits, 2.00 hour) was 3781 ng/mL. For the same compound, the “Concentration in blood plasma (individual animals)” value ([1]; rabbits, 3.00 hour) was 3693 ng/mL, the AUC0-t ([1]; rabbits, individual animals) was 39504 ng·h/mL and 21886 ng·h/mL and 33617 ng·h/mL and 28972 ng·h/mL and 28872 ng·h/mL and the “AUC0-∞” value ([1]; rabbits, individual animals) was 42004 ng·h/mL and 26025 ng·h/mL and 39814 ng·h/mL and 36928 ng·h/mL and 30768 ng·h/mL. The “AUCt-∞/AUC0-∞” value ([1]; rabbits, individual animals) was 11.01% and 5.95% and 15.90% and 15.57% and 21.54% and 6.16%, the C0 ([1]; rabbits, individual animals) was 17049 ng/mL and 9815 ng/mL and 9947 ng/mL and 9624 ng/mL and 9582 ng/mL and the CI ([1]; rabbits, individual animals) was 0.3827 mL/min/kg and 0.3213 mL/min/kg and 0.5187 mL/min/kg and 0.339 mL/min/kg and 0.3655 mL/min/kg and 0.4388 mL/min/kg. For the same compound, the Kel ([1]; rabbits, individual animals) was 0.137 h⁻¹ and 0.234 h⁻¹ and 0.123 h⁻¹ and 0.168 h⁻¹ and 0.099 h⁻¹ and 0.256 h⁻¹, the MRT0-t ([1]; rabbits, individual animals) was 3.14 h and 3.29 h and 3.88 h and 3.74 h and 3.46 h and the T1/2 ([1]; rabbits, individual animals) was 5.06 h and 2.97 h and 5.63 h and 4.12 h and 7.01 h and 2.70 h. The Vd ([1]; rabbits, individual animals) was 0.16766 L/kg and 0.08255 L/kg and 0.2526 L/kg and 0.12101 L/kg and 0.22174 L/kg and 0.1027 L/kg, the “Body weight dynamics, M ± SD” value ([2]; male mice, 3 mg/kg, Day 5) was −13.2 ± 5.1 % of initial body weight and the “Body weight dynamics (individual animals)” value ([2]; male mice, 3 mg/kg, Day 5, listed as test drug, 3 mg/kg) was −6.3 % of initial body weight and −19.0 % of initial body weight and −15.4 % of initial body weight and −22.1 % of initial body weight and −11.0 % of initial body weight and −11.4 % of initial body weight and −13.3 % of initial body weight and −13.8 % of initial body weight and −5.6 % of initial body weight and −13.9 % of initial body weight. The “Body weight dynamics, M ± SD” value ([2]; male mice, 3 mg/kg, Day 10) was 9.9 ± 11.7 % of initial body weight, the “Body weight dynamics (individual animals)” value ([2]; male mice, 3 mg/kg, Day 10, listed as test drug, 3 mg/kg) was 0.0 % of initial body weight and 16.8 % of initial body weight and 18.8 % of initial body weight and −9.1 % of initial body weight and 18.6 % of initial body weight and 16.3 % of initial body weight and 13.8 % of initial body weight and 17.9 % of initial body weight and 18.9 % of initial body weight and −9.9 % of initial body weight and the “Body weight dynamics, M ± SD” value ([2]; male mice, 3 mg/kg, Day 14) was 29.1 ± 9.1 % of initial body weight. The “Body weight dynamics (individual animals)” value ([2]; male mice, 3 mg/kg, Day 14, listed as test drug, 3 mg/kg) was 36.1 % of initial body weight and 30.5 % of initial body weight and 32.7 % of initial body weight and 13.9 % of initial body weight and 34.3 % of initial body weight and 35.1 % of initial body weight and 25.7 % of initial body weight and 35.7 % of initial body weight and 35.2 % of initial body weight and 11.9 % of initial body weight, the “Body weight dynamics, M ± SD” value ([2]; male mice, 5 mg/kg, Day 5) was −20.9 ± 7.6 % of initial body weight and the “Body weight dynamics (individual animals)” value ([2]; male mice, 5 mg/kg, Day 5, listed as test drug, 5 mg/kg) was −27.1 % of initial body weight and −14.3 % of initial body weight and −28.2 % of initial body weight and −23.8 % of initial body weight and −26.1 % of initial body weight and −6.0 % of initial body weight and −22.4 % of initial body weight and −12.0 % of initial body weight and −21.0 % of initial body weight and −27.8 % of initial body weight. For the same compound, the “Body weight dynamics, M ± SD” value ([2]; male mice, 5 mg/kg, Day 10) was −4.3 ± 13.0 % of initial body weight, the “Body weight dynamics (individual animals)” value ([2]; male mice, 5 mg/kg, Day 10, listed as test drug, 5 mg/kg) was −6.7 % of initial body weight and −12.9 % of initial body weight and 1.0 % of initial body weight and −20.8 % of initial body weight and 13.9 % of initial body weight and −18.0 % of initial body weight and 16.8 % of initial body weight and −5.2 % of initial body weight and −6.8 % of initial body weight and the “Body weight dynamics, M ± SD” value ([2]; male mice, 5 mg/kg, Day 14) was 20.5 ± 10.5 % of initial body weight. The “Body weight effect (summary)” value ([2]; male mice, all test doses) was “decreased growth rate or decreased body weight regarding the initial one”, the Fatality ([2]; male mice, i.v. 3 mg/kg) was 0 and the Fatality ([2]; male mice, i.v. 5 mg/kg) was 1. For the same compound, the Fatality ([2]; male mice, i.v. 6 mg/kg) was 3, the Fatality ([2]; male mice, i.v. 7 mg/kg) was 10 and the MTD at 14 days ([2]; male, white outbred, mouse, in vivo, iv, mice, single i.v., read-out: Maximum tolerated dose) was 3 mg/kg. The “Toxic effect (summary)” value ([2]; mice, acute i.v.) was “renal damage, decreased motor activity, dose-dependent hindlimb paresis”, the Signs of intoxication ([2]; mice, single i.v. 2 mg/kg) was “No signs of intoxication” and the Signs of intoxication ([2]; mice, single i.v. 3 mg/kg) was 3-4 days - general health deterioration, the occurring hindlimb paresis. For the same compound, the Signs of intoxication ([2]; mice, single i.v. 7 mg/kg) was 3-4 days - general health deterioration, the occurring hindlimb paresis, decrease movement activity, the Signs of intoxication ([2]; mice, single i.v. 8 mg/kg) was 5 days - all animals had disheveled fur, gastrointestinal bleeding, hindlimb paresis. One animal and the Signs of intoxication ([2]; mice, single i.v. 9 mg/kg, listed as test drug, 9 mg/kg) was “The animals demonstrated a shortness of breath right after administration, the next day - a shortness; also recorded: Days 3 (3), 4 (5), 5 (1), 6 (1)”. The Signs of intoxication ([2]; mice, single i.v. 30 mg/kg) was “All animals were observed with a shortness of breath right after administration, developing”, the Signs of intoxication ([2]; mice, single i.v. 45 mg/kg, listed as test drug, 45 mg/kg) was “All animals were observed with a shortness of breath right after administration, developing; also recorded: died during 12 hours” and the Signs of intoxication ([2]; mice, single i.v. 60 mg/kg) was “All animals were observed with a shortness of breath right after administration, developing”. For the same compound, the LD50 at 14 days ([2]; white outbred, mouse, in vivo, iv, male mice, single i.v., read-out: LD50 (median lethal dose)) was 6.3 mg/kg.
